# Test results taken from US11759508B2, “Antigenic peptides for treatment of B-cell malignancy” (ENTEROME S.A., priority 2019, dated 2023).
# Tests used:
# HLA-A*0201 = biological target: T1, HLA-A*0201 (Homo sapiens, UniProt P04439, D140Y/D185E/D98H/E176V/E277Q/G131W/G231S/I119V/I121R/I166T/I218V/L300P/L318F/N151K/N90K/P208A/P217A/Q86G/Q94H/R138H/R169H/T345S); experiment: Affinity of the peptide to T2 cell line (HLA-A*0201 expression, FACS, relative to HIV pol 589-597); format: binding; details: for mean relative fluorescence intensity of T2 cells: normalized to HIV peptide = 100
# T1 construct: human tumoral cell T2 which expresses the HLA-A*0201 molecule; endogenous in cells; host or cells: T2 cells (human, TAP1/2 negative)
# Excerpt: The experimental protocol is similar to the one that was validated for peptides presented by the HLA-A*0201 (Tourdot et al., A general strategy to enhance immunogenicity of low-affinity HLA-A2.1-associated peptides: implication in the identification of cryptic tumor epitopes. Eur J Immunol. 2000 December; 30(12):3411-21). Affinity measurement of the peptides is achieved with the human tumoral cell T2 which expresses the HLA-A*0201 molecule, but which is TAP ½ negative and incapable of presenting endogenous peptides.
# (§1) T2 cells (5.104 cells per well) are incubated with decreasing concentrations of peptides from 100 μM to 0.1 μM (4 points: 100 μM, 10 μM, 1 μM, 0.1 μM) in serum-free medium (TexMacs) supplemented with […] of β2 Microglobulin at 37° C. for 16 hours. Cells are then washed two times and marked with the anti-HLA-A2 antibody coupled to PE (clone BB7.2, BD Pharmagen).
# The analysis is achieved by FACS (Macsquant analyzer 10-Miltenyi).
# For each peptide concentration, the geometric mean of the labelling associated with the peptide of interest is subtracted from background noise and reported as a percentage of the geometric mean of the […] labelling obtained for the reference peptide HIV pol 589-597 at a concentration of 100 μM. […] A2. Solubilisation of Peptides
# as §1, with “32” for “β2”
# For each peptide concentration, the geometric mean of the labelling associated with the peptide of interest is subtracted from background noise and reported as a percentage of the geometric mean of the […] labelling obtained for the reference peptide HIV pol 589-597 at a concentration of 100 μM.
# [1] = system: CD8 T cells from PBMCs of HLA-A*02 healthy donors; experiment: Detection of antigenic peptide-specific CD8 T cells with pMHC multimers after in vitro amplification; format: cell-based, human; details: one HLA-A2 healthy donor, after cell amplification (FIG. 17)
# Excerpt: In vitro amplification method and specific pMHC multimers have been used for identification of CD22-B1, CD37-B1, TNFRSF13C-B1 and MS4A1-B4 specific T cells. pMHC multimers were generated for all the bacteria peptides and their respective human counterpart. PBMCs from several HLA-A*02 healthy donors (up to 19 donors) were collected, enriched after CD137 and CD8 selection and subjected to multiple rounds of in vitro amplification with EO2463 peptides loaded T2 cells to increase the number of specific T cell clones. Detection of OMP peptide specific CD8 T cells using cytometry analysis with the fluorescent multimer was performed on enriched CD8 T cell populations
# [2] = system: HLA-A2 HHD-DR1 humanized mice; experiment: ELISPOT-IFNγ on splenocytes of vaccinated HLA-A2 HHD-DR1 transgenic mice; format: in vivo, mouse; details: prime d0 and boost d14, splenocytes d21, listed as CD22-B2
sequence,measurement,setting,value
YIFEHPELL (YIFEHPETA) [CD22-B1],Concentration of peptide that induces 20% of HLA-A2 expression,"HLA-A*0201; T2 cells, peptide 100-0.1 μM, 16 h, 37° C., anti-HLA-A2 FACS",0.16 µM
same,In vitro binding affinity* (relative affinity),HLA-A*0201; normalized against HIV-pol concentration of peptide inducing 20% of HLA-A2 expression in the same experiment,0.4
same,mean relative fluorescence intensity of T2 cells,HLA-A*0201; peptide 0.1 (μM),0
same,mean relative fluorescence intensity of T2 cells,HLA-A*0201; peptide 1 (μM),81
same,mean relative fluorescence intensity of T2 cells,HLA-A*0201; peptide 10 (μM),123
same,mean relative fluorescence intensity of T2 cells,HLA-A*0201; peptide 100 (μM),164
same,peptide-specific CD8 T cells detected with fluorescent multimer,[1],4.6%
same,immunogenicity (T cell response in ELISPOT-IFNγ after vaccination),[2],strongly immunogenic
